Assays:
Type in all cases: biochemical
[1] = Synthesis of N-acylamino acids from various fatty acids using purified acylamino acid synthetase, UPLC-MS detection; set-up: key: +: Detected; −: Not detected
How it was run: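 Purified enzyme (200 μg/mL) with 5 mM amino acid, 5 mM sodium fatty acid (3 mM palmitate or stearate, plus 10% methanol), 10 mM ATP, 10 mM MgCl2, 1 mM DTT in 50 mM Tris-HCl pH 8.0, shaken 24 h at 25 °C. Amino acid varied by enzyme; product mass detected by UPLC-MS (ESI-negative).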

[2] = Synthesis of N-caprinoyl-amino acid derivative, N-caprinoyl-D-amino acid and N-caprinoyl-peptide using purified acylamino acid synthetase, UPLC-MS detection; set-up: key: +: Detected; −: Not detected; settings: +ATP
How it was run: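 Purified enzyme (50 μg/mL) was incubated with 5 mM sodium caprate, 5 mM amino acid derivative, D-amino acid or peptide, 10 mM ATP, 10 mM MgCl2 and 1 mM DTT in 50 mM Tris-HCl, pH 8.0, for 24 h at 25 °C. After acidic methanol stop, UPLC-MS looked for the mass of the N-caprinoyl product.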

[3] = Synthesis of N-lauroylamino acid / N-lauroylamino acid derivative using purified acylamino acid synthetase, UPLC-MS detection; set-up: key: +: Detected; −: Not detected; settings: +ATP
Method: 0.2 mL of a reaction solution containing 50 mM Tris-HCl, 5 mM amino acid or D-amino acid derivative, 5 mM sodium laurate, 10 mM ATP, 10 mM MgCl2, 1 mM DTT, 200 μg/mL of the purified enzyme, pH 8.0 was incubated at 25° C. for 24 hours. After completion of the reaction, 0.8 mL of the reaction stop solution (1% (v/v) phosphoric acid, 75% (v/v) methanol) was added, and the mixture was filtrated through the filter followed by being subjected to the UPLC-MS analysis to detect a signal of a molecular weight corresponding to an N-lauroyl-amino acid or an N-lauroyl-amino acid derivative. The condition for the UPLC-MS analysis is as described in Example 2.
As a result of the UPLC-MS analysis, the signal of the molecular weight corresponding to the N-lauroyl-amino acid or the N-lauroyl-amino acid derivative was confirmed in the reaction solution containing the enzyme in combination with the amino acid or the amino acid derivative shown in Table 5 below.

[4] = Quantification of produced N-acylamino acid (UV 210 nm) using purified acylamino acid synthetase; settings: 5 mM sodium fatty acid, 200 μg/mL enzyme, 25° C., 24 hours
Method: 0.1 mL of a reaction solution containing 50 mM Tris-HCl, 5 mM amino acid, 5 mM sodium fatty acid, 10 mM ATP, 10 mM MgCl2, 1 mM DTT, 200 μg/mL of the purified enzyme, pH 8.0 was incubated at 25° C. for 24 hours. As amino acids, L-Asp was used in AtGH3-6, OsGH3-8, AtGH3-5, AtGH3-12, and Gly or L-Ala was used in CfHP. After completion of the reaction, 0.4 mL of the reaction stop solution (1% (v/v) phosphoric acid, 75% (v/v) methanol) was added, and the mixture was filtrated through the filter followed by being subjected to the UPLC-MS analysis to quantify the produced N-acylamino acid by detection at UV 210 nm. The condition for the UPLC-MS analysis is as descried in Example 2. As a result of the analysis, 3.9 mM of Nα-capryloyl-L-aspartic acid, 4.5 mM of Nα-caprinoyl-L-aspartic acid and 2.2 mM of Nα-lauroyl-L-aspartic acid were detected when AtGH3-6 was used; 4.3 mM of Nα-capryloyl-L-aspartic acid, 4.6 mM of Nα-caprinoyl-L-aspartic acid and 3.5 mM of Nα-lauroyl-L-aspartic acid were detected when OsGH3-8 was used; 4.1 mM of Nα-capryloyl-L-aspartic acid, 4.6 mM of Nα-caprinoyl-L-aspartic acid and 2.5 mM of Nα-lauroyl-L-aspartic acid were detected when AtGH3-5 was used; 1.6 mM of Nα-capryloyl-L-aspartic acid, 0.6 mM of Nα-caprinoyl-L-aspartic acid and 0.2 mM of Nα-lauroyl-L-aspartic acid were detected when AtGH3-12 was used; 4.5 mM of Nα-capryloylglycine, 4.6 mM of Nα-caprinoylglycine, 0.1 mM of Nα-lauroylglycine, 3.1 mM of Nα-capryloyl-L-alanine, 3.6 mM of Nα-caprinoyl-L-alanine and 0.4 mM of Nα-lauroyl-L-alanine were detected when CfHP was used.

[5] = substrates Carnosine and sodium caprate
[6] = substrates D-Ala and sodium caprate
[7] = substrates D-Asp and sodium caprate
[8] = substrates D-Cys and sodium caprate
[9] = substrates D-Glu and sodium caprate
[10] = substrates D-Ile and sodium caprate
[11] = substrates D-Lys and sodium caprate
[12] = substrates L-Asp-L-Phe and sodium caprate
[13] = substrates L-Gly-L-Gly and sodium caprate
[14] = substrates Sarcosine and sodium caprate
[15] = substrates Taurine and sodium caprate

B1: AtGH3-6: indole-3-acetic acid-amido synthetase GH3.6 from Arabidopsis thaliana, expressed in E. coli with N-terminal His-tag (protein, listed as Arabidopsis thaliana)
chain: MPEAPKIAALEVSDESLAEKNKNKLQFIEDVTTNADDVQRRVLEEILSRNADVEYLKRHGLEGRTDRETFKHIMPVVTYEDIQPEINRIANGDKSQVLCSNPISEFLTSSGTSGGERKLMPTIEEELDRRSLLYSLLMPVMDQFVPGLDKGKGMYFLFIKSESKTPGGLPARPVLTSYYKSSHFKNRPYDPYTNYTSPNQTILCSDSYQSMYSQMLCGLCQHKEVLRVGAVFASGFIRAIKFLEKHWPELARDIRTGTLSSEITDSSVREAVGEILKPDPKLADFVESECRKTSWQGIITRLWPNTKYVDVIVTGTMSQYIPTLDYYSNGLPLVCTMYASSECYFGVNLRPLCKPSEVSYTLIPNMAYFEFLPVHRNSGVTSSISLPKALTEKEQQELVDLVDVKLGQEYELVVTTYAGLYRYRVGDVLSVAGFKNNAPQFSFICRKNVVLSIDSDKTDEVELQNAVKNAVTHLVPFDASLSEYTSYADTSSIPGHYVLFWELCLNGNTPIPPSVFEDCCLTIEESLNSVYRQGRVSDKSIGPLEIKMVESGTFDKLMDYAISLGASINQYKTPRCVKFAPIIELLNSRVVDSYFSPKCPKWSPGHKQWGSN
modifications: N-terminal His-tag
notes: indole-3-acetic acid-amido synthetase GH3.6 from Arabidopsis thaliana, expressed in E. coli with N-terminal His-tag
- signal of molecular weight corresponding to N-acylamino acid ([1]; substrates L-Asp and Capric acid): +
- signal of molecular weight corresponding to N-acylamino acid ([1]; substrates L-Asp and Caproic acid): +
- signal of molecular weight corresponding to N-acylamino acid ([1]; substrates L-Asp and Caprylic acid): +
- signal of molecular weight corresponding to N-acylamino acid ([1]; substrates L-Asp and Lauric acid): +
- signal of molecular weight corresponding to N-acylamino acid ([1]; substrates L-Asp and Linoleic acid): −
- signal of molecular weight corresponding to N-acylamino acid ([1]; substrates L-Asp and Palmitic acid): +
- signal of molecular weight corresponding to N-acylamino acid ([1]; substrates L-Asp and myristic acid): +
- signal of molecular weight corresponding to N-caprinoyl compound [2, 5]: +
- signal of molecular weight corresponding to N-caprinoyl compound [2, 6]: +
- signal of molecular weight corresponding to N-caprinoyl compound [2, 7]: +
- signal of molecular weight corresponding to N-caprinoyl compound [2, 8]: +
- signal of molecular weight corresponding to N-caprinoyl compound [2, 9]: +
- signal of molecular weight corresponding to N-caprinoyl compound [2, 10]: +
- signal of molecular weight corresponding to N-caprinoyl compound [2, 11]: +
- signal of molecular weight corresponding to N-caprinoyl compound [2, 12]: +
- signal of molecular weight corresponding to N-caprinoyl compound [2, 13]: +
- signal of molecular weight corresponding to N-caprinoyl compound [2, 14]: +
- signal of molecular weight corresponding to N-caprinoyl compound [2, 15]: +
- signal of molecular weight corresponding to N-lauroyl amino acid ([3]; substrates Gly and sodium laurate): +
- signal of molecular weight corresponding to N-lauroyl amino acid ([3]; substrates L-Ala and sodium laurate): +
- signal of molecular weight corresponding to N-lauroyl amino acid ([3]; substrates L-Arg and sodium laurate): +
- signal of molecular weight corresponding to N-lauroyl amino acid ([3]; substrates L-Asp and sodium laurate): +
- signal of molecular weight corresponding to N-lauroyl amino acid ([3]; substrates L-Glu and sodium laurate): +
- signal of molecular weight corresponding to N-lauroyl amino acid ([3]; substrates L-Lys and sodium laurate): +
- signal of molecular weight corresponding to N-lauroyl amino acid ([3]; substrates L-Thr and sodium laurate): +
- signal of molecular weight corresponding to N-lauroyl amino acid ([3]; substrates β-Ala and sodium laurate): +
- Nα-caprinoyl-L-aspartic acid detected ([4]; 5 mM L-Asp): 4.5 mM
- Nα-capryloyl-L-aspartic acid detected ([4]; 5 mM L-Asp): 3.9 mM
- Nα-lauroyl-L-aspartic acid detected ([4]; 5 mM L-Asp): 2.2 mM

B2: CfHP: hypothetical protein from Cystobacter fuscus (GH3 protein), His-tagged (protein, listed as Cystobacter fuscus)
chain: MQAAGRRDKQRFIEQTRHVARVNVDTLRAILQHNRDTDFGRRHGFASLRTVEDFQRALPVSTYEPFRPYMERIARGEQNVLTADRVEYLGITSGTTGQRKLLPVSRPHLENMRRTMMIGRAVVTEKVPAARRPSRGMILMNAVLRERSEGGLLTGALTAISTHSMGRAASFAFTSPPEAFRLRKHADALYLHLLFGLRERELGTLMAPFASGLLDMVHLLERRGADLVDDIARGVLRPELDLEPEQRRLLQSRLLPDPERAREVSQALEQGPHGLLRRLWPRLAYVSSITGASFSLYTRQLTPYLEGVPLSAASYVSTEGILGVPLELEQAVYCLMVGMAFFEFIPERELDAESPTTLLPEQLVEGEAYEVVLTTQAGLYRYRLGDVVRIVGRYHEAPLMEFLYRRGALLNLMGEKTSEHAARLALEQALATEGLLPADYSVVEETETLPGRYALFVELQEGARPQGAPEQLSRALEEALCRTNPFYEVIRRSERLGAAQLHRVEPGTFQALRDVLVQRGASPTQVKVPRVVRDAELQGLLRQRRVTG
modifications: His-tag
notes: hypothetical protein from Cystobacter fuscus (GH3 protein), His-tagged
- signal of molecular weight corresponding to N-acylamino acid ([1]; substrates Gly and Capric acid): +
- signal of molecular weight corresponding to N-acylamino acid ([1]; substrates Gly and Caproic acid): +
- signal of molecular weight corresponding to N-acylamino acid ([1]; substrates Gly and Caprylic acid): +
- signal of molecular weight corresponding to N-acylamino acid ([1]; substrates Gly and Lauric acid): +
- signal of molecular weight corresponding to N-acylamino acid ([1]; substrates Gly and Linoleic acid): −
- signal of molecular weight corresponding to N-acylamino acid ([1]; substrates Gly and Palmitic acid): +
- signal of molecular weight corresponding to N-acylamino acid ([1]; substrates Gly and myristic acid): +
- signal of molecular weight corresponding to N-caprinoyl compound [2, 5]: +
- signal of molecular weight corresponding to N-caprinoyl compound [2, 6]: +
- signal of molecular weight corresponding to N-caprinoyl compound [2, 7]: +
- signal of molecular weight corresponding to N-caprinoyl compound [2, 8]: +
- signal of molecular weight corresponding to N-caprinoyl compound [2, 9]: +
- signal of molecular weight corresponding to N-caprinoyl compound [2, 10]: +
- signal of molecular weight corresponding to N-caprinoyl compound [2, 11]: +
- signal of molecular weight corresponding to N-caprinoyl compound [2, 12]: +
- signal of molecular weight corresponding to N-caprinoyl compound [2, 13]: +
- signal of molecular weight corresponding to N-caprinoyl compound [2, 14]: +
- signal of molecular weight corresponding to N-caprinoyl compound [2, 15]: +
- Nα-caprinoylglycine detected ([4]; 5 mM Gly): 4.6 mM
- Nα-capryloylglycine detected ([4]; 5 mM Gly): 4.5 mM
- Nα-lauroylglycine detected ([4]; 5 mM Gly): 0.1 mM
- Nα-caprinoyl-L-alanine detected ([4]; 5 mM L-Ala): 3.6 mM
- Nα-capryloyl-L-alanine detected ([4]; 5 mM L-Ala): 3.1 mM
- Nα-lauroyl-L-alanine detected ([4]; 5 mM L-Ala): 0.4 mM

Source: patent US12281340B2, “Method of producing N-acyl-amino group-containing compound” (AJINOMOTO CO., INC., priority 2018, dated 2025)
